The results in this text go back to publication PMC5587734.

One data set has as its target MBD2 MBD (chicken) (chicken, UniProt Q5EFL0 1-71). The data set can be described thus: NMR.
The target of a further data set is MBD2 MBD+IDR (chicken) (chicken, UniProt Q5EFL0 1-117). Put plainly: NMR.

B1: INV mCpG DNA (dsDNA)
DNA 1: GGACCGACTC
DNA 2: GAGTCGGTCC
modifications: 5mC at position 5 of strand 1; complement methylation implied
B1: the binding result with MBD2 MBD (chicken) and with MBD2 MBD+IDR (chicken) was “binds” each time.
